Data published in PMC4826903 (Science (New York, N.Y.), 2015).

Target: the molecule itself

B1: Nsp1•Nup49•Nup57 channel nup hetero-trimer (CNT) (complex, Chaetomium thermophilum)
chain 1: MDEIITRWATDLAKYQKEFKEQAAKVMEWDRLLVENGEKIQKLYTSTYEAERASNEIERQLSNVESQQEELTAWLDRYERELDELYAKQMGSAAGEQAAGPDQERERTYKLAEKLTDQLDEMGKDLAKMIKEINDMSNTLSKGSKPDDPLTQIVRVLNGHLAQLQWIDTNAAALQAKVAAAQKAAGSMGANVPGTETDAAESFYRSYR
chain 2: EALQQEIAKIDEEIQKCIRDKEAVDAFLPAHGEQLAAIPTDVNFVTRKSEGAHNALSSDILAIDQLRELVKQDADNARLSFKAIDNLKLPMQYHQAGLWSKQMGGAGTAGASGASADADGQSNADLISYFSKTADEMEEMMKKFEKTITEIEAHLTGVEAHAMAMQNVAAQSRNAAQGGVDERVYELAAVLREFEESILKVAGVVGGVKEGVTELQLRDFMGHGS
chain 3: YQKPIPEQIKLIVDKWNPNHPNCAFKTYLYNKVDEHTVPLYGPGPNEDPKEWEEALQRKPAPNFIPVLCSGFPSIVARLMLQRRVITEFNNKLHQINASLDAILSRHDLDHTVRAFNARRRHAELSRRCLHLAARVQVLRNRGYALSGDEDELKQKLQQIDKTLNDPAQGSRLEELWSRLIVLRGYAEDLKDQINQAGITESDGLGEEIEAKAKKILEDYDKQLQHLKKQVEEAKKDFEEWEKQHN
stoichiometry N: 2
